# In patent US20260284212 (published 2026):
# Changes are numbered by the printed parent chain.
# T1: human CD6 (human, UniProt P30203)
# T1 chain: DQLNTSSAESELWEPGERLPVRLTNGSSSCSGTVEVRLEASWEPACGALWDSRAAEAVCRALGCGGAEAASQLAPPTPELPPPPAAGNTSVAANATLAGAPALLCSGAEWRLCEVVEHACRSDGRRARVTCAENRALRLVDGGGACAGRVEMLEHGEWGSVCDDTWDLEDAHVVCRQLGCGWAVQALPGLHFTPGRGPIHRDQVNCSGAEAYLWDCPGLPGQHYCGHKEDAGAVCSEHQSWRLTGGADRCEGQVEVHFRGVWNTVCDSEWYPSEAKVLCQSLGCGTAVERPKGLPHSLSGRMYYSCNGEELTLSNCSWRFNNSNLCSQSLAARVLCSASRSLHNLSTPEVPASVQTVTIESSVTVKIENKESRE
# T2: human CD5 (human, UniProt P06127)
# T2 chain: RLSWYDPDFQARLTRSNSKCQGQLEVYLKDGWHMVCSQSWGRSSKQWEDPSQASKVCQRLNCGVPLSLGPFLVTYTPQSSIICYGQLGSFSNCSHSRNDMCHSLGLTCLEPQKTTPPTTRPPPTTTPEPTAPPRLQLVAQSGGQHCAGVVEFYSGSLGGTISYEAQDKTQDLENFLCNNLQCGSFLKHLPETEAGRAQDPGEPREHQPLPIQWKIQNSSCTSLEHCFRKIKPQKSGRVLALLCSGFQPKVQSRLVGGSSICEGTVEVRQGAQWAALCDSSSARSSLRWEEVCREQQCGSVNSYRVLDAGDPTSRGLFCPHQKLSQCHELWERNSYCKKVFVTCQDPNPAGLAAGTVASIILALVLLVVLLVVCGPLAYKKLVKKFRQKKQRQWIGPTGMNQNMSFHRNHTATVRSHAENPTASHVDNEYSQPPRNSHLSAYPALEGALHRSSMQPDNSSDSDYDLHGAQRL
# B1: A1CD601 VHH HuG1Fc (chimeric) (antibody, V domains shown)
# VH: QVQLQESGGGLVQAGGSLRLSCTASERTFSDYALGWFRQGPGKEREFVAAINWVGGSTYYADSVKGRFTISRDNAKNTLLLQMNSLKPEDTAVYFCVASWGAMPVLTHVINYWGKGTQVTVSS
# B2: CD601HH10 HuG1Fc (antibody, V domains shown)
# VH: B1 VH with A14P, T23S, G40A, A75S, L80Y, K87R, P88A, F95Y, Q118L
# B3: CD601HH12 HuG1Fc (antibody, V domains shown)
# VH: B1 VH with Q5V, A14P, G40A, A75S, L80Y, K87R, P88A, F95Y, Q118L
# B4: CD601HH14 HuG1Fc (antibody, V domains shown)
# VH: B1 VH with Q5V, A14P, T23S, G40A, L80Y, K87R, P88A, F95Y, Q118L
# B5: CD601HH8 HuG1Fc (antibody, V domains shown)
# VH: QVQLVESGGGLVQPGGSLRLSCSASERTFSDYAMGWFRQAPGKEREFVAAINWVGGSTYYADSVKGRFTISRDNSKNTLYLQMNSLRAEDTAVYYCVASWGAMPVLTHVINYWGKGTLVTVSS
# Molecular target: T1, human CD6
# Test: not given
row,Kd [nM],Binder
1,0.21,B1
2,0.247,B2
3,0.222,B3
4,0.269,B4
5,0.24,B5

# Molecular target: T2, human CD5
# Test: ELISA
row,binding result,Binder
1,no binding,B1
2,no binding,B2
3,no binding,B3
4,no binding,B4
5,no binding,B5

# Molecular target: T1, human CD6
# Test: ELISA
row,EC50 [nM],Binder
1,0.053,B1
2,0.066,B2
3,0.05,B3
4,0.053,B4
5,0.053,B5
